B1: Pistol ribozyme (parent)
chain: GGGUCGUUGUUCCAUAAUCGCGUGGAUAUGGCACGCAAGUUUCUACCGGGCACCGUAAAUGUCCGACUGGAGCCGUUCGGGCGGCUAUAAACAGACCUCAGGCCCGAAGCGUGGCGGCACCUGCCGCCGGUGGUAAAAAAGAUCGGAAGAGCACACGUCU

Variants of: B1
Assay: aptazyme ON/OFF ratio, guanine; higher = stronger switching; co-transcriptional cleavage with and without guanine

Variant	aptazyme ON/OFF ratio
G9C U10G C12G C13U	1.05
U7C U8C G9C U10G C12G C13G	1.09
U7A U8C G9C U10G C13U	1.14
U7C U8G U10C U11A C12A C13A	1.19
U7A U8C U10G C12U C13G	1.14
U8G G9A C12U C13G	1.28
U7G G9U U11A C12U	1.32
U8G G9C U10A U11G C12U	1.2
U7G G9C U10C U11C C12A C13A	1.02
U8G G9U U10A U11G C12G C13A	1.05
U8G G9U U10G C12U C13U	1.06
U7G U8A U11A C12G C13G	1.18
U7G U8A G9A U10A U11A C12A C13U	1.12
U7C U8G G9A U11A C12U C13G	1.17
U7A U8G U10G C12A C13U	1.15
U7A G9U U10C U11G C12G	1.09
U7A U8A G9U U10A U11A C12U C13G	1.22
U7G C12U C13G	1.21
U7C U8C G9U U10C C12U C13A	1.12
U7G U8G G9A C12A	1.41
U7G U8G G9U U10C U11A C12G	1.25
U7G U8A G9U U11A C12U C13U	1.07
U7G U8C G9U U10A U11A C12G C13A	1.07
U7C G9C U10A U11G C12G C13A	1.1

Variant	aptazyme ON/OFF ratio
U8A G9A U11G C12A C13U	1.09
U8C G9A U10C U11G C13G	1.44
U8A U10C U11C C12G	1.27
G9A U10G U11G C13G	1.14
U8C G9U U11G C12A C13U	1.26
U7G U8C G9A U11A C12U	1.36
U8A G9C U10A U11C C12A C13U	1.24
U7C G9C U10G U11C C12G C13A	1.16
U7C U8A G9U U11A C12U C13A	1.16
U7C U8C U10A U11G	1.37
U7A U8G G9U U10G C12U C13A	1.49
U7C U8G G9C U10G U11G C12A	1.18
U7A U11G C13G	1.05
U8G U10G U11C C12A C13G	1.08
U8G G9U U10G U11C C12A C13A	1.02
U7G U8G U10C C12U	1.52
U7A U8G G9A U10C C12G C13A	1.19
U7A U8C G9C U10A C13G	1.07
U7G U8C G9U U10A U11C C12G	1.26
G9A U10C U11C C12A C13A	1.12
U7C G9A U10C U11C C12A C13G	1.15
U8C G9C U11C C13G	1.04
U8A G9A U10A U11A	1.35
U7G U8G G9A U10C U11C C12A C13A	1.19

Variant	aptazyme ON/OFF ratio
U8A G9C U11C C12U C13U	1.01
G9U U10A U11G C12G C13U	1.14
U7G G9U U10G U11A C12G C13G	1.17
U7G U8G C13U	1.7
U7A U8G G9A U11G	1.64
U7C U8G G9U U10C U11C C12G	1.07
U7C U8G U10C U11G C13G	1.1
U7C U8C U10A U11A C12A C13G	1.11
U7A U8G G9U U11G C12A C13G	1.27
U7A U8A U11G C12U C13U	1.35
U7A U8C G9C U10G C12G C13G	1.11
U8G G9A U10A C12G C13U	1.35
U7C U8A G9A U11A C12A	1.2
U7A U8G U10A U11C C12A C13U	1.53
U7G U8G U10A U11G C12A	1.16
U7C U8C G9U U10A U11A C13G	1.14
U7G U8A G9C U10G U11G C12G	1.06
U7G G9A U10C U11G C13A	1.09
U7C U8C G9A U11G C13A	1.3
U7A U8C G9C U10C U11G C12A C13G	1.07
U7G G9A U10G U11C C12G	1.1
U7G U8C U11G	1.01
U7C U8A G9C U10G U11C C12U C13G	1.27
U7G U8G G9U U10G C12G C13A	1.13

Variant	aptazyme ON/OFF ratio
U7G U8A G9U U10G U11C C12A	1.14
U7A U8G G9C U10C C12G	1.4
U7A U8A G9C U11A C12A C13A	1.08
U7C U8G G9A U11G C12U	1.26
G9U U10G U11C C12G C13G	1.06
U7G U8G U10A C13A	1.34
U7G U8G U10C U11A C12A	1.34
U7G U8C G9A U10C U11G C12A C13U	1.16
U7A U8A G9C C12G C13U	1.18
U7A U8G G9C U10C U11G	1.26
U8G G9C U10G U11A C12A C13G	1.11
U7G G9A U10A U11G C13U	1.14
U7A U8A G9C U10A U11A C13A	1.23
U7A G9U U10C U11A C13G	1.1
U7A U8G G9U U10G U11C C13U	1.05
U7C G9U U10A C12G C13U	1.27
U7A U8C U10G U11G C12A C13U	1.34
U8C G9U U10G U11G C12U C13U	1.15
G9U U11A C12G C13G	1.2
U7A U8A G9U U11C C12A C13A	1.12
U7A U8C G9U U10C U11G C12A C13A	1.13
U7A U8C G9U U10C U11G C12A C13U	1.27
U7C U8C G9U U10G U11G C13U	1.08
U8C G9A U10G C13G	1.14

Variant	aptazyme ON/OFF ratio
U8G G9U U10G C12G C13U	1.02
U8G G9U U10G C12G C13A	1.02
U7C U8G G9U U10C C12G C13G	1.34
U7C U8G G9U U10C C12G C13A	1.28
U11G	1.22
U7A U8A G9U U10G U11A C13U	1.1
U7G U8C G9U C12G C13U	1.32
U8G G9C U10A U11A C13A	1.11
U8A U10A C12U C13G	1.13
U7A U8G U10C C12U C13G	1.4
U7C U8C G9U U11A C12A C13A	1.17
U7A G9C U10A U11G C13U	1.09
U7G U8A U10G C12A C13U	1.15
G9U U11G C12U C13A	1.43
U7A U8A U10G U11A C12U C13A	1.35
U7C U8A G9U U10A U11A C12A	1.1
U7G U8A G9A U10A U11G C12G C13U	1.17
U7G U8G U10G C12U C13G	1.04
U7C G9U U10C U11C C12G C13A	1.03
U7A U8A G9A U10A U11G C12U C13U	1.3
U7A U8C G9U U10C C12G	1.57
U7C U8A U10C U11C C12G C13U	1.09
U7C U8G G9U U10C C12U C13A	1.38
U8G G9U U10C U11G C12U C13U	1.24

Variant	aptazyme ON/OFF ratio
U7A U8A G9C U10G U11G C12G C13U	1.21
U7G G9C U10G U11A C12G C13G	1.18
U7A U8A G9A U11A C13A	1.2
U7C G9A U10G C13G	1.02
U7C G9C U11G C12G C13G	1.09
G9A U10A	3.05
U7A U8C U10A C13G	1.01
U7A U8C G9U U10C U11C C13G	1.02
U7A U8C G9A U10C U11C C13A	1.04
U7G G9C U11G C13A	1.29
U7G U8A U10G U11A C12A	1.16
U7C U8G G9A U10A U11G C12U C13U	1.35
G9C U10G U11A C12A C13G	1.06
U7A U8A G9A U10A C12G	1.24
U7C U8G U11C C12A C13A	1.28
U7A G9A U10G C12G	1.21
U7C G9U C12G	1.14
U7G U8G G9U U10G C12A C13G	1.14
G9U U10G U11G C12A C13A	1.28
U7C U8C G9A U11A C12U	1.06
U8A G9U U10A U11C C12U C13G	1.22
U7G U8G U10C U11A	1.74
U7A G9U U10G C13U	1.54
U7A U8C G9U U11C C12G	1.27

Variant	aptazyme ON/OFF ratio
U8C G9A U11A C12U C13G	1.14
U7C U8A G9A U10G U11A C12G C13G	1.07
G9U U10A C13A	1.27
U7C U8C U10A U11A C13A	1.26
U7A U8G G9A U10G U11G C12U C13A	1.33
U7C U8A G9A U10A U11A C12G C13U	1.22
U8G U10A U11C C12A C13A	1.13
U7A U8C G9U U10C U11A C12U C13U	1.15
U7G U8C U10G C13G	1.22
G9A U10G U11C C12U	1.08
U7G G9C U10C U11C C12G C13U	1.06
U7C U8C G9C U11G C12A C13A	1.13
U7G U8A G9U U10C U11C C12U C13G	1.06
U8C G9A U10C C12G C13A	1.18
U7A U8A G9A U10G C12G C13G	1.11
G9A U10G U11A	1.06
U7C U8A U10G U11A C12G C13G	1.18
U7C U8G G9C U10G U11A C12A C13A	1.31
U7A G9A U11A C12G C13U	1.28
U7C U8G G9A C12A C13U	1.29
G9A U11G C12U C13A	1.35
U7A U8C G9U U10G C12A C13G	1.18
U8C U10G U11C C12G	1.78
